From patent publication US20230094463A1, “ANTIBODIES THAT DISRUPT THE INTERACTION OF GAL3 AND INSULIN RECEPTOR OR INTEGRINS AND METHODS OF USE THEREOF” (TrueBinding, Inc., priority 2019, published 2023)

Tests used:
[1] = system: Gal3 peptides (SEQ ID NOs: 3-26); assay: Gal3 peptide library binding ELISA (epitope mapping); set-up: species or system human; conditions: Peptide 8 (SEQ ID NO: 10)
Procedure: (§1) To identify the epitopes to which Gal3 antibodies with and without Gal3-INSR blocking activity bound, a library of 24 amino acid peptides representing portions of Gal3, depicted in FIG. 27, was produced and the ability of each peptide to bind Gal3 antibodies was evaluated by ELISA. At least 2 μg/ml of hGal3 peptide in 50 μl of PBS or 0.1 μg/ml of full-length human Gal3 protein (GenScript) and human Galectin-3 protein (Acro Biosystems, GA3-H5129) were diluted in PBS (Corning, 21-030-CM) to concentrations of at least 2 μg/ml or 0.1 μg/ml, respectively, and added to the wells of a 96-well ELISA plate (Thermo Fisher, 44-2404-21). After incubating the plate at 4° C. overnight, the plate was washed three times with PBST (PBS with 0.05% Tween 20 [VWR, 0777]). The plate was then blocked for an hour with 2% BSA (EMD Millipore, 126609) in PBST at room temperature with gentle rocking. Thereafter, the 2% BSA in PBST was discarded and human Galectin-3 hybridoma supernatants or antibodies were diluted in 2% BSA in PBST to concentrations of at least 0.1 μg/ml and added to the wells. The plate was incubated for an hour at room temperature with gentle rocking and then washed three times with PBST. Afterwards, Goat Anti-Mouse IgG-HRP (Jackson ImmunoResearch, 115-036-1461) or Goat Anti-Rat IgG HRP (Abcam, ab205720) diluted in 2% BSA in PBST (1:4000) were added to the wells. The plate was incubated for 30 minutes to 1 hour at room temperature with gentle rocking and then washed three times with PBST. TMB substrate (Thermo Scientific, 34029) was then added to each well. The reaction was stopped with 1M HCl (JT Baker, 5620-02) and read using a plate reader (Molecular Devices) at absorbance of 450 nm.
(§2) Human Gal3 peptides (LifeTein, custom order) and human Gal3 proteins (R&D Systems, 8259-GA; TrueBinding, QCB200349) were diluted in PBS (Corning, 21-030-CM) to concentrations of at least 100 μg/mL (peptides) or 1 μg/mL (proteins), and added to the wells of several 96-well ELISA plates (Thermo Fisher, 44-2404-21). After incubating the plates at 4° C. overnight, the plates were washed three times with PBST (PBS with 0.05% Tween 20 [VWR, 0777]). The plates were then blocked for an hour with 2% BSA (EMD Millipore, 126609) in PBST at room temperature with gentle rocking. Thereafter, the 2% BSA in PBST was discarded and Gal3-binding antibodies (reformatted hIgG4 [S228P]) were diluted in 2% BSA in PBST to concentrations of 5 μg/mL and added to the wells. The plates were incubated for an hour at room temperature with gentle rocking and then washed three times with PBST. Afterwards, Peroxidase AffiniPure F(ab′)2 Fragment Goat Anti-Human IgG (H+L) polyclonal antibody (Jackson ImmunoResearch, 109-036-003), was diluted in 2% BSA in PBST (1:4000) and added to the wells. The plates were incubated for 1 hour at room temperature with gentle rocking and then washed three times with PBST. TMB substrate (Thermo Scientific, 34029) was then added to each well. The reaction was stopped with 1M HCl (JT Baker, 5620-02) and read using a plate reader (Molecular Devices) at absorbance of 450 nm.

[2] = biological target: T1, Gal3 peptides (SEQ ID NOs: 3-26) (Homo sapiens, UniProt P17931); assay: as above
T1 construct: a library of 24 amino acid peptides representing portions of Gal3; purchased LifeTein custom order
Procedure: as §1, §2

Jurkat T cell adhesion = Jurkat T cell adhesion assay on Gal-3/antibody coated plates; assay type: cell-based; conditions: recombinant Gal-3 pre-incubated with antibody, 10^5 cells per well
Procedure: To evaluate whether anti-GAL3 antibodies that block GAL3 interaction with integrin negatively influence lymphocyte homing (an important aspect in development of inflammatory diseases), a cell-based assay utilizing lymphocyte Jurkat T cell line was employed. Briefly, recombinant Gal-3 ([…] in PBS) and antibody ([…] in PBS) were incubated for 30 minutes on ice prior to the coating mixture transfer to the 96-well plate and additional overnight incubation. The coating mixture was then removed and the plate was blocked with 0.5% BSA for 45 minutes. Jurkat T cells (10^5 cells per well) were plated in serum free RPMI. Following thirty-minute incubation, the cells were gently washed once with serum free medium and fixed with 4% PFA for 10 minutes. The adhered cells were further stained with SYTOX™ Orange Nucleic Acid staining (ThermoFisher, S11368) and analyzed by Cytation 1 Cell Imaging Multi-Mode Reader (Biotek).

human Gal3 = biological target: T2, human Gal3 (Homo sapiens, UniProt P17931); assay: Antibody binning assays (competition for binding to Gal3); conditions: binning per Examples 3 and 18
T2 construct: His; purchased AcroBio GA3-H5129
Procedure: To determine whether Gal3-binding antibodies with Gal3-INSR blocking activity bind to the same or overlapping regions of the Gal3 molecule, antibody binning assays were performed to assess the ability of antibodies to simultaneously bind Gal3. Amine-reactive probes were loaded onto a Gator biosensor (Probe Life, Palo Alto, Calif.), equilibrated in dH20 for 60 seconds, dipped into 100 μl EDC 0.2M/NHS 0.05M activation buffer for 30 seconds, then dipped into a solution of […] human Gal3-His in 10 mM NaOAc buffer, pH 5 until binding was saturated, and quenched in 1 M ethanolamine pH 8.5 for 300 seconds. Following Gal3-His loading, tips were dipped in 20 μg/mL saturating antibody, then successively dipped into 5 μg/mL competing antibody.
The epitope binning assay was done in a sandwich format on the high-throughput SPR-based Carterra LSA unit (CarterraBio, Salt Lake City, Utah). First, the purified antibodies were diluted to 10 μg/ml concentration in 10 mM NaOAc (pH 5.0) and then were covalently coupled via amine group to HC200M chip activated by EDC and S-NHS to immobilize antibodies to different positions of a 384-spot array. One hundred thirty-eight binning cycles were run on the array of immobilized antibodies. In each cycle, first, human Gal3 (AcroBio GA3-H5129) was injected over the entire array to bind to different antibodies (primary antibody), followed by one antibody (secondary antibody) selected among the panel of 150 anti-GAL3 antibodies tested. At the end of each cycle, the array was regenerated by 10 mM Glycine (pH 2.0) to remove bound antigen and secondary antibody from the array. The data analysis was done using the Epitope software by CarterraBio.

[3] = biological target: T3, interaction of Gal3 and INSR (Homo sapiens, UniProt P17931); assay: ELISA of blocking of Gal3-INSR association by Gal3-binding antibodies
T3 construct: 6-histidine tag (linker-spaced); purchased Acro Biosystems (Gal3); Sino Biological (INSR) GA3-H5129; 11086-H08H
Procedure: Positively scoring wells were evaluated for the ability to block association of Gal3 and INSR. To identify Gal3-targeted antibodies with the ability to block the interaction of Gal3 and INSR, purified Gal3 and INSR proteins were incubated in the presence of Gal3-immunization hybridoma supernatants described above, or without antibody, and protein interaction was evaluated by ELISA. Human Galectin-3 protein (Acro Biosystems, GA3-H5129) was diluted in PBS (Corning, 21-030-CM) to a concentration of 3 μg/ml and added to the wells of a 96-well ELISA plate (Thermo Fisher, 44-2404-21). After incubating the plate at 4° C. overnight, the plate was washed three times with PBST (PBS with 0.05% Tween 20 [VWR, 0777]). The plate was then blocked for an hour with 2% BSA (EMD Millipore, 126609) in PBST at room temperature with gentle rocking. Thereafter, the 2% BSA in PBST was discarded and antibody or inhibitor (3-fold dilutions beginning at 20 μg/ml, 60 μg/ml, or 180 μM) in 2% BSA in PBST was added to the wells. Afterwards, 6 μg/ml of human Insulin Receptor (Sino Biological, 11086-H08H) in 2% BSA in PBST was added to the antibody or inhibitor in the wells in a 1:1 ratio. The plate was incubated for an hour at room temperature with gentle rocking. Thereafter, the plate was washed three times with PBST, and 0.3 μg/ml of human INSR Biotinylated Antibody (R&D Systems, BAF1544) in 2% BSA in PBST was added to the wells. The plate was incubated for an hour with gentle rocking and then washed three times with PBST. Avidin-HRP (1:2000) was then added to the wells. The plate was incubated at room temperature for an hour with gentle rocking and then washed three times with PBST. TMB substrate (Thermo Scientific, 34029) was then added to each well. The reaction was stopped with 1M HCl (JT Baker, 5620-02) and read using a plate reader (Molecular Devices) at absorbance of 450 nm.

NOD/ShiLtJ mice = conditions: 10 mg/kg twice a week
Description: To assess the therapeutic potential of anti-GAL3 antibody in Type I diabetes, a mouse model of diabetes type I was used. Briefly, seven-weeks-old female NOD/ShiLtJ mice (Jackson lab (001976)) and control group animals NOR/LtJ (Jackson Lab (002050)) were housed in standard disposable cages with filter tops at room temperature with a 6:00-18:00 day-night cycle. Mice were allowed to rest for a week before initiating glucose monitoring. The antibody treatment was initiated when glucose levels reach 250-400 (mg/dL) for two consecutive days. To establish glucose levels, the blood samples were collected from tail vein of the experimental animals following housing in clean cages with water and no food for 4-6 hours. The collected samples were analyzed by HemoCue Glucose 201 Analyzer and cuvettes (Mercedes Scientific 110706). […] At the end stage, the plasma samples were collected from symptomatic animals. C-peptide levels were determined by Alpco Mouse C-peptide ELISA kit (Alpco, 80-CPTMS-E01).

T2 sequence (P17931 whole entry): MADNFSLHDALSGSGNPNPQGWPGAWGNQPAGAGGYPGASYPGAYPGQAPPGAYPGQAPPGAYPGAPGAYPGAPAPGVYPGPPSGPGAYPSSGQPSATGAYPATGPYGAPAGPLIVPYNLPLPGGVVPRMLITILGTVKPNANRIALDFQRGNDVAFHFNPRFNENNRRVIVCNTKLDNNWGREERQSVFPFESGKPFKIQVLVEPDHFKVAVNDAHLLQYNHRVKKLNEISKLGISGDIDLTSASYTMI
T3 sequence (P17931 2-250 limits assumed): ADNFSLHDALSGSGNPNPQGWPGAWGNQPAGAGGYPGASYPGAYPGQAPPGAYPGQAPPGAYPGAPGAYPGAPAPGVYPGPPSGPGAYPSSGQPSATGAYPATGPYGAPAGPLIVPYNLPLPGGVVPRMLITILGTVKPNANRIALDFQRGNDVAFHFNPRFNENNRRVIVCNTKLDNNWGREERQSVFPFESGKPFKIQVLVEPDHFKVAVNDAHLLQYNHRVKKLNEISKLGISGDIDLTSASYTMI

B1: 23H9.2E4: anti-Gal3 monoclonal antibody (antibody, V domains shown)
VH: QIQLVQSGPELKKPGETVKISCKASGYTFTTYAMSWVKQAPGKGLKWMGWINTYSGVPTYADDLKGRFAFSLETSASTAYLQINNLKNEDTATYFCARGPYAMDYWGQGTSVTVSS
VL: DIQMTQTTSSLSASLGDRVTISCSASQGINNYLNWYQQKPDGTVKLLIYYASSLHSGVPSRFSGSGSGTDYSLTISNLEPEDIATYYCQQYSQVPYTFGSGTKLEIK
[1]
  binding to Gal3 Peptide 8: bind
[2]; Peptide 1 (SEQ ID NO: 3), amino acids 1-20 of Gal3
  binding to Gal3 Peptide 1: bind and bound
[2]; Peptide 6 (SEQ ID NO: 8), amino acids 51-70 of Gal3
  binding to Gal3 Peptide 6: bind and bound
[2]; Peptide 7 (SEQ ID NO: 9), amino acids 61-80 of Gal3
  binding to Gal3 Peptide 7: bind and bound
Jurkat T cell adhesion
  inhibition of Jurkat T cell adhesion: did not inhibit
Human Gal3
  epitope bin (competitive binding to Gal3): bin 3

B2: 12G5.D7: anti-Gal3 monoclonal antibody (antibody, V domains shown)
VH: QVQLKQSGAELVRPGASVKLSCKASGYTFTDYYINWVKQRPGQGLEWIARIYPGTGNTDYNEKFKGRATLTAEKSSSTAYMQLSSLTSEDSAVYFCARFAYYYGSGGYFDYWGHGTTLTVSS
VL: DILMTQSPSSMSVSLGDTVSITCHASQGINSNMGWLQQKPGKSFKGLIYHATNLEDGVPSRFSGSGSGADYSLTISSLESEDFADYYCVQYAQFPPTFGSGTKLEIK
[3]
  Gal3-INSR blocking activity (in words): poorly block
Human Gal3
  epitope bin (competitive binding to Gal3): bin 10

B3: mTB001: anti-GAL3 antibody used in mouse models (antibody)
heavy: QIQLVQSGPELKKPGETVKISCKASGYTFTNYGMNWVKQAPGKGLKWMGWINTNTGEPTYVEEFKGRFAFSLETSASTAYLQINNLKNEDTATYFCAPYDNFFAYWGQGTLVTVSAAKTTPPSVYPLAPVCGDTTGSSVTLGCLVKGYFPEPVTLTWNSGSLSSGVHTFPAVLQSDLYTLSSSVTVTSSTWPSQSITCNVAHPASSTKVDKKIEPRGPTIKPCPPCKCPAPNAAGGPSVFIFPPKIKDVLMISLSPIVTCVVVDVSEDDPDVQISWFVNNVEVHTAQTQTHREDYNSTLRVVSALPIQHQDWMSGKEFKCKVNNKDLGAPIERTISKPKGSVRAPQVYVLPPPEEEMTKKQVTLTCMVTDFMPEDIYVEWTNNGKTELNYKNTEPVLDSDGSYFMYSKLRVEKKNWVERNSYSCSVVHEGLHNHHTTKSFSRTPGK
light: DIVITQDELSNPVTSGESVSISCRSSKSLLYKDGKTYLNWFLQRPGQSPQLLIYLMSTHASGVSDRFSGSGSGTDFTLEISRVKAEDVGVYYCQQLVDYPLTFGAGTKLELKRADVAPTVSIFPPSSEQLTSGGASVVCFLNNFYPKDINVKWKIDGSERQNGVLNSWTDQDSKDSTYSMSSTLTLTKDEYERHNSYTCEATHKTSTSPIVKSFNRNEC
NOD/ShiLtJ mice
  levels of blood glucose: stabilizing the levels of blood glucose
  survival: prolonged survival
NOD/ShiLtJ mice; plasma ELISA
  C-peptide levels: restoring C-peptide levels
